Assay results as given in patent publication US20050287522A1.
One block for each substance: values may come before it.

Experiments:
[1] = biological target: tEGFR-ω fusion (extracellular and transmembrane regions of the EGF receptor fused to the ω fragment); experiment: cell-based or functional assay
[2] = biological target: ω-NLS (ω fragment fused to a triplet SV40 nuclear localization signal); experiment: cell-based or functional assay
Sequence of ω-NLS (ω fragment fused to a triplet SV40 nuclear localization signal) (P00722 other isoform, or with tags, fused parts or gaps): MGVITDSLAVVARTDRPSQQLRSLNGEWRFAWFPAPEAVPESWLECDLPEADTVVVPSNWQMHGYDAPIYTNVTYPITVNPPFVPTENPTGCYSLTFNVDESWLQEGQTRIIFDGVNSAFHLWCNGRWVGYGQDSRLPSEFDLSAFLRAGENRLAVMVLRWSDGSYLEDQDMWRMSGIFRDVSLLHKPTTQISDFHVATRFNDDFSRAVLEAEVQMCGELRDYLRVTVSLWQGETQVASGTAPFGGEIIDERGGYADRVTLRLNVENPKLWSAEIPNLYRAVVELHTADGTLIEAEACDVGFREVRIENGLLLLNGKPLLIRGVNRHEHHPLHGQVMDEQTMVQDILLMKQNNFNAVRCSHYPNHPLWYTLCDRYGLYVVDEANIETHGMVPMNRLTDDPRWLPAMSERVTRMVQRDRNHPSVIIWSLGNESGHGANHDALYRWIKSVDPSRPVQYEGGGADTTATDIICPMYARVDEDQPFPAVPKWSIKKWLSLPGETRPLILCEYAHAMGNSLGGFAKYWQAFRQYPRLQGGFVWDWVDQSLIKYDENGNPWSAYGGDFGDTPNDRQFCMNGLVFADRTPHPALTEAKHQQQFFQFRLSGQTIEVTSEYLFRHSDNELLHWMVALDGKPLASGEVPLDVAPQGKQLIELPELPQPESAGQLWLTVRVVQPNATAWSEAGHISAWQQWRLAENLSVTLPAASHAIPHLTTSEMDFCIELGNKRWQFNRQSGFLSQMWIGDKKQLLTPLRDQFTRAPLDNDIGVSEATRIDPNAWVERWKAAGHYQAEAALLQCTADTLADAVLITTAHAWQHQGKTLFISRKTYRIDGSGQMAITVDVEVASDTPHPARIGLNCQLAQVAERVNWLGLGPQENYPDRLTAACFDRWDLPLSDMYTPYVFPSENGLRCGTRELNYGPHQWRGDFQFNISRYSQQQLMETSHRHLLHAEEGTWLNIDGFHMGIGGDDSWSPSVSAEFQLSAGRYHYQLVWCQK

Sequence of tEGFR-ω fusion (extracellular and transmembrane regions of the EGF receptor fused to the ω fragment) (P00722 other isoform, or with tags, fused parts or gaps): as above

Substance: C1A domain of PKCγ fused to the GFP-α H31R point mutant (from UniProt P42212 1-238)
fold induction of β-galactosidase activity on PMA (NIH 3T3 cells, membrane translocation assay) (fold induction) [1]: 7

Substance: NES-GFP-α-NLS protein (MEK nuclear export signal, GFP, α peptide, triplet SV40 NLS) (from UniProt P42212 1-238)
β-galactosidase activity after leptomycin B (loss of signal assay) (fold decrease) [1]: 5
β-galactosidase activity after leptomycin B for 2 hours (gain of signal assay, luminescent substrate) (fold increase) [2]: 3.5

Substance: glucocorticoid receptor fused to the amino-terminus of the GFP-α fusion (from UniProt P42212 1-238)
change in β-galactosidase activity with dexamethasone, DDAO substrate, flow cytometry of live cells [1]: 5 to 10 fold change
difference in β-galactosidase activity at 30 min of dexamethasone (loss of signal assay) [1]: 25%
β-galactosidase activity after 1 µM dexamethasone for 3 hours (loss of signal assay) [1]: 5 fold
change in β-galactosidase activity with dexamethasone, DDAO substrate, flow cytometry of live cells [2]: 5 to 10 fold change
difference in β-galactosidase activity at 30 min of dexamethasone (gain of signal assay) [2]: 100%
β-galactosidase activity after 1 µM dexamethasone for 3 hours (gain of signal assay) (fold induction) [2]: 3.5

Results, then the substance that gave them:

increase in β-galactosidase activity on PMA (NIH 3T3 cells, membrane translocation assay) [1]: < 10 % increase
Substance: C1A domain of PKCγ fused to GFP-α (wild type α peptide) (from UniProt P42212 1-238)

increase in β-galactosidase activity on PDGF, luminescent assay in 3T3 cells [1]: 5 fold
increase in β-galactosidase activity on insulin, luminescent assay in 3T3 cells [1]: 2.5 fold
increase in β-galactosidase activity on osmotic shock (sorbitol), luminescent assay in 3T3 cells [1]: 8 fold
Substance: PH domain of AKT fused to the GFP-α chimera (from UniProt P42212 1-238)
